The target in this assay is T1, 3×Flag-PRMT5 (UniProt O14744 1-637).
T1 construct: Protein arginine methyltransferase 5 (PRMT5), from plasmid pCDH-CMV-3×Flag-PRMT5
Description: pull-down; GST pull-down as described in ref. 23; GST-tagged protein expressed in BL21; Flag-tagged protein purified from HEK-293T by Flag affinity gel and 3× FLAG peptide elution; the paper calls the binding direct. The settings on record: both partners purified.

T1 sequence (O14744 whole entry): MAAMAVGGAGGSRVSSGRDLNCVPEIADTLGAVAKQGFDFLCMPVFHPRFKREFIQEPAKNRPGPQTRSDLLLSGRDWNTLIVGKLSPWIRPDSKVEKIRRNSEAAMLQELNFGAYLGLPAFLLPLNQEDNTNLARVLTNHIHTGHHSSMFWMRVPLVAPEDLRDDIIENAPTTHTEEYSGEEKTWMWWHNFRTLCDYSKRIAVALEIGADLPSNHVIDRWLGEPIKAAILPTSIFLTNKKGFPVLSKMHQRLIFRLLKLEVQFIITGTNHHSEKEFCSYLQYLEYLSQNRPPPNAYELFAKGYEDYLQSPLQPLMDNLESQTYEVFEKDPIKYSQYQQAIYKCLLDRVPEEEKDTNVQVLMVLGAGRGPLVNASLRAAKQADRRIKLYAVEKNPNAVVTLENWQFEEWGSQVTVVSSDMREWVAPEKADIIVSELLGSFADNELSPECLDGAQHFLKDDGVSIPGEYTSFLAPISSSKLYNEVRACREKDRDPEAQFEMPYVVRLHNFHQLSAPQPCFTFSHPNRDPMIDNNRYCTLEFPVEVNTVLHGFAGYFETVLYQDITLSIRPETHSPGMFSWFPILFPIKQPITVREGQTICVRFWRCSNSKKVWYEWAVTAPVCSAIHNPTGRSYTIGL

B1: GST-CRIP1, full-length (FL), wild type (natural protein, UniProt P50238 1-77, looked up)
chain: MPKCPKCNKEVYFAERVTSLGKDWHRPCLKCEKCGKTLTSGGHAEHEGKPYCNHPCYAAMFGPKGFGRGGAESHTFK
notes: Cysteine-rich intestinal protein 1 (CRIP1), full length, in pGEX-6P-1; also called GST-CRIP1 WT; source: E. coli BL21, induced with 1 mM IPTG
For the molecule B1, the binding result is recorded as “binds”.

These data come from PMC12509902, “PRMT1/PRMT5-Mediated Differential Arginine Methylation of CRIP1 Promotes the Recurrence of Small Cell Lung Cancer after Chemotherapy” (International Journal of Biological Sciences, 2025).
